Test results reported in patent US20080214462.

Target: factor X (FX), P00742
Sequence (P00742 whole entry, looked up): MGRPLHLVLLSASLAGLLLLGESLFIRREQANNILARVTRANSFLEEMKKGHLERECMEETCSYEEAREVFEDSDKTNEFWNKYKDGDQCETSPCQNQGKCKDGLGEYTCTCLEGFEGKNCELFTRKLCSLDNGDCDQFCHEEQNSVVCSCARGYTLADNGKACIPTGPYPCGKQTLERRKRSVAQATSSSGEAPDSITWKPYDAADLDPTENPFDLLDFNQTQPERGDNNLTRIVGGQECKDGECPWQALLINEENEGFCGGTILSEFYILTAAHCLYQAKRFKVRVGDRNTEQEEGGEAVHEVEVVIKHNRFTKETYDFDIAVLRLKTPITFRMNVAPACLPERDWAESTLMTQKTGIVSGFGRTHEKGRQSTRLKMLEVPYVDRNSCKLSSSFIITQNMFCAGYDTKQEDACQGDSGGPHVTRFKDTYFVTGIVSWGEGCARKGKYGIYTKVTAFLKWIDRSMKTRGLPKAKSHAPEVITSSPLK

Protein	aPTT in FIX-depleted plasma: pdFIXa equivalent activity given for 0.5 µg/mL of FIXa protein (µg/mL pdFIXa activity)
FIXa-Y94F/K98T/Y177F (protein) YNSGKLEEFVQGNLERECMEEKCSFEEAREVFENTERTTEFWKQYVDGDQCESNPCLNGGSCKDDINSYECWCPFGFEGKNCELDVTCNIKNGRCEQFCKNSADNKVVCSCTEGYRLAENQKSCEPAVPFPCGRVSVSQTSKLTRAEAVFPDVDYVNSTEAETILDNITQSTQSFNDFTRVVGGEDAKPGQFPWQVVLNGKVDAFCGGSIVNEKWIVTAAHCVETGVKITVVAGEHNIEETEHTEQKRNVIRIIPHHNFNAAINTYNHDIALLELDEPLVLNSYVTPICIADKEYTNIFLKFGSGYVSGWGRVFHKGRSALVLQYLRVPLVDRATCLRSTKFTIFNNMFCAGFHEGGRDSCQGDSGGPHVTEVEGTSFLTGIISWGEECAMKGKYGIYTKVSRYVNWIKEKTKLT	1
FIXa-Y94F/K98T/Y177F/I213V/E219G (protein) YNSGKLEEFVQGNLERECMEEKCSFEEAREVFENTERTTEFWKQYVDGDQCESNPCLNGGSCKDDINSYECWCPFGFEGKNCELDVTCNIKNGRCEQFCKNSADNKVVCSCTEGYRLAENQKSCEPAVPFPCGRVSVSQTSKLTRAEAVFPDVDYVNSTEAETILDNITQSTQSFNDFTRVVGGEDAKPGQFPWQVVLNGKVDAFCGGSIVNEKWIVTAAHCVETGVKITVVAGEHNIEETEHTEQKRNVIRIIPHHNFNAAINTYNHDIALLELDEPLVLNSYVTPICIADKEYTNIFLKFGSGYVSGWGRVFHKGRSALVLQYLRVPLVDRATCLRSTKFTIFNNMFCAGFHEGGRDSCQGDSGGPHVTEVEGTSFLTGIVSWGEGCAMKGKYGIYTKVSRYVNWIKEKTKLT	14.4
